Results as given in US20090142365A1 (HEALTH RESEARCH, published 2009).

Molecular target: Luciferase (UniProt P08659 1-550 = luciferase, limits assumed)
Assay: pull-down: 1:1 mix, immunoprecipitation with anti-OVA antibody, western blot with anti-luciferase antibody
Protocol: Lanes with no chaperone (1st lane) were included as controls. […] In the bottom panel, WB was performed with anti-luciferase to confirm that OVA pull-down was successful.
After SDS-PAGE (10%) electrophoresis, western blot analysis was performed using anti-luciferase (Promega, Madison, Wis.) or anti-gp100 antibody (Santa Cruz Biotechnology, Santa Cruz, Calif.).

Luciferase, sequence (P08659 whole entry): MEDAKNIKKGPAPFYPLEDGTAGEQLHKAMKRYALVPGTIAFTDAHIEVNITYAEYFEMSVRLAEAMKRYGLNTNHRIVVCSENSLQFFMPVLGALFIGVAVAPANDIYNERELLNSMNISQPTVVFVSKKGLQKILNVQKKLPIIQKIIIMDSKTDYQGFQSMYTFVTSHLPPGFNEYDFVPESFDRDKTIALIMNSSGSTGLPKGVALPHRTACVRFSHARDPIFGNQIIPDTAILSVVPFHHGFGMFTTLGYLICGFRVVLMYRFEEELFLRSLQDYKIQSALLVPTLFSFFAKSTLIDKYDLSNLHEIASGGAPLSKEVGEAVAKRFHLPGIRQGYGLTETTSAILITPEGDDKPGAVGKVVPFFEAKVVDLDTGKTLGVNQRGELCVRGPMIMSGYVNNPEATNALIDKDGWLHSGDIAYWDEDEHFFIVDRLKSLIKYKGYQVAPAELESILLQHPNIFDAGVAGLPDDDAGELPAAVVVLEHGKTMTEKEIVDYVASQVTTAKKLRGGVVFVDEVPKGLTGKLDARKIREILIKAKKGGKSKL

- binding result: no binding
B1: Ovalbumin (other, UniProt P01012 2-386, looked up)
chain: GSIGAASMEFCFDVFKELKVHHANENIFYCPIAIMSALAMVYLGAKDSTRTQINKVVRFDKLPGFGDSIEAQCGTSVNVHSSLRDILNQITKPNDVYSFSLASRLYAEERYPILPEYLQCVKELYRGGLEPINFQTAADQARELINSWVESQTNGIIRNVLQPSSVDSQTAMVLVNAIVFKGLWEKAFKDEDTQAMPFRVTEQESKPVQMMYQIGLFRVASMASEKMKILELPFASGTMSMLVLLPDEVSGLEQLESIINFEKLTEWTSSNVMEERKIKVYLPRMKMEEKYNLTSVLMAMGITDVFSSSANLSGISSAESLKISQAVHAAHAEINEAGREVVGSAEAGVDAASVSEEFRADHPFLFCIKHIATNAVLFFGRCVSP
notes: Negative control protein
